Drawing on PMC5915679 (Molecular cell, 2017), this text covers binding result and Kd for two molecules.

The target in experiment [1] is T1, human Argonaute-1 (human, UniProt Q9UL18 1-857). The experiment in a line: fluorescence polarisation. On the technique in general: Fluorescence polarisation rises when a labelled molecule tumbles more slowly, as on binding a larger partner.
Experiment [2] has as its target T1, human Argonaute-1. The experiment in a line: ITC.

By Kd is commonly meant the concentration at which binding is half-saturated. Low readings indicate a tighter complex, high ones a looser complex.

No end group written: not given here. FAM = fluorescein amidite

In the case of {FAM}-TVDNGTSAWGKPIDSGPSWGEP (peptide, UniProt Q8NDV7-2 820-841, looked up) [N-terminal fluorescein amidite (FAM) labeled hGW182 hook fragment], the binding result with human Argonaute-1 [1] is recorded as “binds”.
In the experiment with human Argonaute-1 [2], TVDNGTSAWGKPIDSGPSWGEP (peptide, UniProt Q8NDV7-2 820-841, looked up) [hGW182 (TNRC6A) hook motif] returned a Kd of 383 nM.
